Results: the DeepSol protein solubility set

Experiment: soluble on expression in E. coli; label from the status in PepcDB or PDB records
In the case of “MIVERVLYNIKDIDLEKLEVDFVDIEWYEVQKKILRKLSSNGIEVGIRNSNGEALKEGDVLWQEGNKVLVVRIPYCDCIVLKPQNMYEMGKTCYEMGNRHAPLFIDGDELMTPYDEPLMQALIKCGLSPYKKSCKLTTPLGGNLHGYSHSHSH”, the “soluble on expression in E. coli” value is reported as “not soluble”. With “MRKEKIRLEYMLKAGSGNIVWSIISTPSGLETWFADKVIFKDKVFTFYWGKTETRQAEVTNFRVNSFIRFRWLDDEDPKAYFELKMVYNELTSDYMLEVIDWAAPDEVEDTKELWDSEIEKLKRVSGLLEHHHHHH” the “soluble on expression in E. coli” value was “soluble”. In the case of “QLLGATVVEHNPLYTAHELEGLFQDHGARVAIAWDKAASTLEKLRDTTSLETIISVNMTEAMPRIQQLALRIPIPPIAAKREQLTAFADNTVPWSTLIGNAIGGNGKRTEFPKVTKDDIALILYTSGTTGTPKGALLSHGNLVSNCFMGKAWVPGLGDQPER”, the “soluble on expression in E. coli” value is reported as “not soluble”. With “MHKEIAKELLLLAGGKNNIISISHCTTRLRFDVKDETKIDIHAIENLQGVQGTFFRYGLFQIIFGAGVVNKIYKEVVHVWETAPSEEPVHQKKASRKLNPAAAFAKTLSDI” the “soluble on expression in E. coli” value was “not soluble”. For “MAHHHHHHQTQTPSQLLQSFTTRTTDYNQLINSVGINAITPQQIQRIEKLSGKAPHHYLSRGVFLAEKSLDKFLDDVEAKKPTFIFIQKYPQKEVALEEYITLEFARYLQDAFNIQVIIQILDDIKVLNREATINEASKMSNDLMKYILAFGFNEDKTFIYTDYQYFGKMYRTISLVEKATAYNVVQPFFNFEYSDNIGKLASPSIMTASMFSQSYSHFFSSPARCLVLDSIKNVQFHSIIDQIATTLNFIQPTVLFHKMVPLLSGVTKFDIPSDHNSILLSDNAKQVERKINKLAFSGGRNTTEEHKKLGGQCDIDVSFQLLNIFSSDNAQVKDVEEKYSKGELLSGELKKIVSASMKDFIVAYDAKKKPITTAYLKAYISKTKF”, the “soluble on expression in E. coli” value was “soluble”. For “MEQQLNLGHLLTAARLLDIGALDISSLDLGALTSTSSSPGSSSPAMFDLSNESELRSLFCGKLKVDKKQSSCASNASTSSQPYCSSPPARKSSKHSRTAHNELEKTRRANLRGCLETLKMLVPCVSDATRNTTLALLTRARDHIIELQDSNAAQMKKLNDLRDEQDELVAELAQLQADEEVAQATSQACQTLSQSRPESRASSFTSTSSRDSPCYLEYSPSSKPMDSHKPTIIDLYAEGLIPRGPITFPRPLVYPHNVFDLMNLPPTPFDVSQFLPINLQV”, the “soluble on expression in E. coli” value was “not soluble”. For “MPITPPLNIISPKLYPNEQWNESEALGAITWLWYQSPTHRQVPIVEMMTYILPVLKNGQFALFCKGTQPIGYISWAYFDEVAQAHYLESDRHLRDNSDWNCGDNIWLIQWFAPLGHSHQMRSAVRQLFPSTTVRALYHKGSDKGLRILTFKT”, the “soluble on expression in E. coli” value was “not soluble”. In the case of “MSLDEIKSGKYKHGDKLPTEKELMERFNASRETVRKALERLVVKNLVIRKPGLGTFVNIEKKNKVVGILVQQITSYIFPYIALGAEEVLFANGYKMLLGNASEDPHKERQIINEWLEVGVDGLIIDPVYSATKRSNRDLIEDMAKKGTKVVLVHTNWDIEGVGSVVLDDWYGGEKAAEIFYQYGHRNVAVLYKTIHLPSVVRAQAFLKRGRELGFEKVHEKSFHVSEFTGIVMQSAFELLSLPKDQRPTAVFCYNDATALQFFLAAKRMGLKIPEDVSVIGFDDAPIGDFREILTTFEHPKEEVGKKAVEILLKMIDGEKPEKYVFKPKLIMRESVTYPKEGHHHHHH”, the “soluble on expression in E. coli” value is reported as “soluble”. With “MDSADPQLNRFLQQLQAETQRQKFTEQVHTLTGRCWDVCFADYRPPSKMDGKTQTCIQNCVNRMIDASNFMVEHLSKMNGGHV” the “soluble on expression in E. coli” value was “not soluble”. In the case of “MPIKVKYYGNVVFASDAVCGQAENYATLKAMKEVGNYTISIQTFENAENVYPEEFLAKPVADEHYLTTEDGSVGIKGHYLDIVKELIEKDKVDIIFAGGKLGSLAKLAELTRPYGIPTLEHHHHHH”, the “soluble on expression in E. coli” value is reported as “not soluble”. For “MASSSATLSLCSTFSAHCNVNSRRSSTILCSLSKPSLNLAKPLTGFLSPSTASTSRTAFTVAPKFAESVVEAEPETTDIEAVVVSDVSEVTEEKAKREEIFAVIMVGGRQYIVFPGRYLYTQRLKDANVDDQIVLNKVLLVGTKTHTYIGKPVVTNATVHAVVESQGLNDKVVVFKYKPKKKYRRNIGHRQPNTRIRITGITGYEEYPASPNVAVGEVNLLEHHHHHH”, the “soluble on expression in E. coli” value was “not soluble”. With “MKVYSKDDIVEQAKELAKMISETEEVDFFKKAEAQIHKNENVKRAIDEIKALQKQAVNLQHYGKWEALKKVEAEIDALQDKLDSIPVVQQFKSSQTYVNDLLQLVASTISNNVTDEILISTGGDVLKGETGAAVESKKGNCGC” the “soluble on expression in E. coli” value was “not soluble”. With “MGSDKIHHHHHHMINHHPNSDVLAQFVAGTLPASVSVLVASHVELCSECTRAVQALTEQAAIDAFGESSQEALRDASQPAGLADVSGLDDFDGLDDFDTSDQFGDSDEFADCINAITALERDDTQQLPQTVTEIAVGGERIPLPTALRSIPLKEWQGMGKLSRSRLALDDGDLRMSLLHIDKGGSVPCHTHKGFEITLLLQGSFTDEMGEYRKGDFIWLDGQHTHQPVTEKGCVCLTVSSDAIRFTQGVSQLLNPIGRFIY” the “soluble on expression in E. coli” value was “not soluble”. For “MGSDKIHHHHHHMSVMFDPDTAIYPFPPKPTPLSIDEKAYYREKIKRLLKERNAVMVAHYYTDPEIQQLAEETGGCISDSLEMARFGAKHPASTLLVAGVRFMGETAKILSPEKTILMPTLQAECSLDLGCPVEEFNAFCDAHPDRTVVVYANTSAAVKARADWVVTSSIAVELIDHLDSLGEKIIWAPDKHLGRYVQKQTGGDILCWQGACIVHDEFKTQALTRLQEEYPDAAILVHPESPQAIVDMADAVGSTSQLIAAAKTLPHQRLIVATDRGIFYKMQQAVPDKELLEAPTAGEGATCRSCAHCPWMAMNGLQAIAEALEQEGSNHEVHVDERLRERALVPLNRMLDFAATLRG”, the “soluble on expression in E. coli” value was “not soluble”. With “YSVTVKWGKEKFEGVELNTDEPPMVFKAQLFALTGVQPARQKVMVKGGTLKDDDWGNIKMKNGMTVLMMGSADALPEEPSAKT” the “soluble on expression in E. coli” value was “soluble”. For “MSLGRPAPFKVGALNSITGAGGTYGPGMLEAIKIGIAEVNAAGGAAGRELKLYAEDDQTRPDAAVLAARKLVDIQHVDAMIGIWSSAVQLATLPITNAAGILSFNTCGAPEIRTEDKRDLVFQFYASNAIIGAAFAAIGQRLGYKRAAVLGYNNATMSVQANHFKAAWEKKGNQIVSSAIYEPNQATYRTEVEKAVAAKPDVIVLSSYTPDATILLKEWYQTGYECKFIMPGYSATPALIKALGPDVMRNIVSTANVPASDNQAYKAFVEKFQAVTKSPPEMFAAAAYDMVITLALAIEAAGPDAKPADLSALVRQVSNPPGQKVSSFVQGRDLLRQKAKIDFDGASSSLDFDANGDTVPDFGIYEFDGKAFALKDVVPGATEGHHHHHH”, the “soluble on expression in E. coli” value was “soluble”. With “MSLMRDITPDLCDKYESQVTLLNLPLQNFGQRSAFWGEIVTVRCYHDNSKVRDVLSQNGKGKVLVVDGHGSCHKALMGDQLAILAIKNDWEGVIIYGAVRDVVAMSEMDLGIKALGTSPFKTEKRGAGQVNVTLTMQNQIVEPGDYLYADWNGILMSETALDVAEGGSHHHHHH” the “soluble on expression in E. coli” value was “soluble”. In the case of “MSLKIAVIGCGAMGSIYAAKLAAAGEQVLAVDRHRPSVERINRDGLRVTGPGCDQVVPLRASTGAVDETMDLVVLAVKAADVEAAARQALPMLGPDTAVLTIQNGLGSAETVAGVVGAQRVAVGIASGFGASRVAPGHVHHNAMRAMRFGPYSSLPHARVESIARTWAHAGFDAAAVTDIAAMQWEKLICNVAYSAPCALTGMTVGQVMDDAEMGPVSRAAATEAWSVARASGVAIAVADAVEHVRAFGAQMPDAKPSALLDHEARRVSEIDVINGAVPRQGARVGVDAPVNATLTAVVKSIERRWREGHHHHHH”, the “soluble on expression in E. coli” value is reported as “not soluble”. For “MRTLGLDLGTKTLGVAVSDELGLTAQGLETIAIDTERGDYGLKRLRAIIDEYGVDTIVVGWPKNMNGTLGPRAEASERFAAKLREEFSLPVVLRDERLSTMAAERMLIAADVSRKKRRKVIDKMAAAVILQSYLDSKR”, the “soluble on expression in E. coli” value was “not soluble”. In the case of “GANPTTAETLDATRRVDDATVAIRCAINNLIVELIRGTGSYNRSSFESSSGLVWTSGPAGEGSYSITTPSQFVFLSSAWADPIELINLCTNALGNQFQTQQARTVVQRQFSEVWKPSPQVTVRFPDSDFKVYRYNAVLDPLVTALLGAFDTRNRIIEVENQ”, the “soluble on expression in E. coli” value is reported as “soluble”. In the case of “MNRESFAAGERLVSPAYVRQGCEARRSHEHLIRLLLEKGKCPENGWDESTLELFLHELAIMDSNNFLGNCGVGEREGRVASALVARRHYRFIHGIGRSGDISAVQPKAAGSSLLNKITNSLVLDIIKLAGVHTVANCFVVPMATGMSLTLCFLTLRHKRPKAKYIIWPRIDQKSCFKSMITAGFEPVVIENVLEGDELRTDLKAVEAKVQELGPDCILCIHSTTSCFAPRVPDRLEELAVICANYDIPHIVNNAYGVQSSKCMHLIQQGARVGRIDAFVQSLDKNFMVPVGGAIIAGFNDSFIQEISKMYPGRASASPSLDVLITLLSLGSNGYKKLLKERKEMFSYLSNQIKKLSEAYNERLLHTPHNPISLAMTLKTLDEHRDKAVTQLGSMLFTRQVSGARVVPLGSMQTVSGYTFRGFMSHTNNYPCAYLNAASAIGMKMQDVDLFIKRLDRCLKAVRKERSKESDDNYDKTEDVDIEEMALKLDNVLLDTYQDASS”, the “soluble on expression in E. coli” value is reported as “soluble”. For “GMSTPTPDTDVEQVGLANTAFYEAMERGDFETLSSLWLTPADLGVDEEYHDPADAGVVSCVHPGWPVLSGRGEVLRSYALIMANTEYIQFFLTDVHVSVTGDTALVTCTENILSGGPPPDDSDELGPLVGQLVVATNVFRRTPDGWKLWSHHASPVLAETGAEEGDESPD”, the “soluble on expression in E. coli” value was “soluble”. With “MKSNEHDDCQVTNPSTGHLFDLSSLSGRAGFTAAYSEKGLVYMSICGENENCPPGVGACFGQTRISVGKANKRLRYVDQVLQLVYKDGSPCPSKSGLSYKSVISFVCRPEAGPTNRPMLISLDKQTCTLFFSWHTPLACEQATECSVRNGSSIVDLSPLIHRTGGYEAYDESEDDASDTNPDFYINICQPLNPMHAVPCPAGAAVCKVPIDGPPIDIGRVAGPPILNPIANEIYLNFESSTPCLADKHFNYTSLIAFHCKRGVSMGTPKLLRTSECDFVFEWETPVVCPDEVRMDGCTLTDEQLLYSFNLSSLSTSTFKVTRDSRTYSVGVCTFAVGPEQGGCKDGGVCLLSGTKGASFGRLQSMKLDYRHQDEAVVLSYVNGDRCPPETDDGVPCVFPFIFNGKSYEECIIESRAKLWCSTTADYDRDHEWGFCRHSNSYRTSSIIFKCDEDEDIGRPQVFSEVRGCDVTFEWKTKVVCPPKKLKHHHHHH” the “soluble on expression in E. coli” value was “soluble”. For “MGSDKIHHHHHHMTTSAVSIPMPSIPRRRRSPEDVLAAAPVPGPKKVLLAAPRGYCAGVDRAVIAVEKALEHYGPPVYVRKQIVHNVHVVSSLEEKGAIFVDETDEVPEGALVIFSAHGVSPAVVQSAEDRGLRTIDATCPLVTKVHREAVRFAKDDFDILLIGHDGHEEVEGTAGEAPEHIQIINGPHEVDKVTVRDPEKVIWLSQTTLSVDETMETVRLLKERFPTLQDPPSDDICYATTNRQVAIKKISPQADLVIVVGSANSSNSVRLVEVALEYGAKASYRVDFANEVDEAWFEGVATVGVTSGASVPEVLVKDVLRLLADYGYGTVEEVVTAEEDLLFSLPKELRATLKKSGDVTRALGGRGARA”, the “soluble on expression in E. coli” value was “not soluble”.
